Assay results reported in the supplement of paper PMC9112550, “Optimization of the antimicrobial peptide Bac7 by deep mutational scanning” (BMC Biology, 2022).

Test system: Escherichia coli TOP10
Assay: shrunken log2 fold change of peptide-encoding DNA abundance (4.5 h post-induction vs induction); higher = less antimicrobial activity (less host growth inhibition)
Settings: time post-induction: 4.5 h; library: site-saturation at positions 5, 18, 19, 20
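Further: peptides expressed intracellularly from a pBAD plasmid library in pooled LB shake-flask culture, induced with 0.3% L-arabinose, DNA abundance read by NGS, three biological replicates, DESeq2 with apeglm shrinkage.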

| Sequence | shrunken log2 fold change |
| --- | --- |
| RRIRYRPPRLPRPRPRPWCKPRP | -0.00141 |
| RRIRTRPPRLPRPRPRPYQLPRP | -0.5 |
| RRIRMRPPRLPRPRPRPIEHPRP | -0.0129 |
| RRIRKRPPRLPRPRPRPGRDPRP | 0.688 |
| RRIRSRPPRLPRPRPRPSITPRP | -0.392 |
| RRIRFRPPRLPRPRPRPMWCPRP | 0.0155 |
| RRIRMRPPRLPRPRPRPLMFPRP | 0.0219 |
| RRIRARPPRLPRPRPRPNMPPRP | -0.0377 |
| RRIRSRPPRLPRPRPRPCGVPRP | 0.0491 |
| RRIRQRPPRLPRPRPRPDTRPRP | 0.00157 |
| RRIRCRPPRLPRPRPRPTHWPRP | 0.546 |
| RRIRTRPPRLPRPRPRPDADPRP | 0.0357 |
| RRIRMRPPRLPRPRPRPCWDPRP | 0.439 |
| RRIRKRPPRLPRPRPRPNVAPRP | 0.387 |
| RRIRVRPPRLPRPRPRPKMLPRP | -0.13 |
| RRIRKRPPRLPRPRPRPWKVPRP | -0.000777 |
| RRIRERPPRLPRPRPRPTQAPRP | -0.0212 |
| RRIRLRPPRLPRPRPRPYITPRP | -0.716 |
| RRIRNRPPRLPRPRPRPIEGPRP | -0.0908 |
| RRIRARPPRLPRPRPRPSCVPRP | 0.157 |
| RRIRQRPPRLPRPRPRPILVPRP | -0.0138 |
| RRIRIRPPRLPRPRPRPCDCPRP | -0.0657 |
| RRIRYRPPRLPRPRPRPCCCPRP | -0.211 |
| RRIRRRPPRLPRPRPRPPQCPRP | 1.55 |
| RRIRARPPRLPRPRPRPRDQPRP | 0.499 |

| Sequence | shrunken log2 fold change |
| --- | --- |
| RRIRWRPPRLPRPRPRPWHTPRP | 0.103 |
| RRIRLRPPRLPRPRPRPPMFPRP | -0.242 |
| RRIRGRPPRLPRPRPRPTDAPRP | 1.14 |
| RRIRARPPRLPRPRPRPWMRPRP | 0.263 |
| RRIRIRPPRLPRPRPRPHYAPRP | -0.121 |
| RRIRGRPPRLPRPRPRPKDFPRP | -0.0214 |
| RRIRLRPPRLPRPRPRPMIVPRP | -0.199 |
| RRIRVRPPRLPRPRPRPCCDPRP | -0.182 |
| RRIRKRPPRLPRPRPRPDGHPRP | -0.0242 |
| RRIRMRPPRLPRPRPRPPNHPRP | 0.206 |
| RRIRQRPPRLPRPRPRPAATPRP | 0.732 |
| RRIRQRPPRLPRPRPRPYTVPRP | -0.104 |
| RRIRCRPPRLPRPRPRPQSVPRP | -0.125 |
| RRIRRRPPRLPRPRPRPAMFPRP | 0.372 |
| RRIRFRPPRLPRPRPRPQQAPRP | 0.366 |
| RRIRTRPPRLPRPRPRPALYPRP | 0.0598 |
| RRIRFRPPRLPRPRPRPYHFPRP | -0.194 |
| RRIRQRPPRLPRPRPRPVQDPRP | -0.0297 |
| RRIRYRPPRLPRPRPRPWQCPRP | 0.06 |
| RRIRERPPRLPRPRPRPIIIPRP | -0.0562 |
| RRIRCRPPRLPRPRPRPQMNPRP | -0.416 |
| RRIRRRPPRLPRPRPRPQCPPRP | -0.178 |
| RRIRFRPPRLPRPRPRPPCCPRP | 0.0896 |
| RRIRKRPPRLPRPRPRPKYHPRP | -0.204 |
| RRIRTRPPRLPRPRPRPVIKPRP | -0.237 |

| Sequence | shrunken log2 fold change |
| --- | --- |
| RRIRIRPPRLPRPRPRPCANPRP | -0.234 |
| RRIRIRPPRLPRPRPRPQMIPRP | -0.241 |
| RRIRWRPPRLPRPRPRPTLCPRP | 0.127 |
| RRIRTRPPRLPRPRPRPSSYPRP | -0.0381 |
| RRIRSRPPRLPRPRPRPWVTPRP | -0.89 |
| RRIRNRPPRLPRPRPRPELYPRP | 0.23 |
| RRIRQRPPRLPRPRPRPGQTPRP | 0.00514 |
| RRIRARPPRLPRPRPRPIEYPRP | -0.267 |
| RRIRCRPPRLPRPRPRPDDNPRP | 0.423 |
| RRIRWRPPRLPRPRPRPLSPPRP | -0.097 |
| RRIRYRPPRLPRPRPRPQIFPRP | 0.0295 |
| RRIRWRPPRLPRPRPRPYFIPRP | -0.647 |
| RRIRWRPPRLPRPRPRPSNNPRP | -0.446 |
| RRIRLRPPRLPRPRPRPTDHPRP | -0.323 |
| RRIRNRPPRLPRPRPRPFPDPRP | -0.00602 |
| RRIRARPPRLPRPRPRPWQDPRP | 0.0326 |
| RRIRKRPPRLPRPRPRPDWDPRP | -0.193 |
| RRIRHRPPRLPRPRPRPIGTPRP | -0.0693 |
| RRIRDRPPRLPRPRPRPLSIPRP | -0.0668 |
| RRIRDRPPRLPRPRPRPADYPRP | -0.0418 |
| RRIRTRPPRLPRPRPRPMWDPRP | 0.00971 |
| RRIRARPPRLPRPRPRPIVAPRP | 0.371 |
| RRIRGRPPRLPRPRPRPSNPPRP | 0.14 |
| RRIRYRPPRLPRPRPRPLVWPRP | 0.00227 |
| RRIRERPPRLPRPRPRPIPNPRP | -0.135 |

| Sequence | shrunken log2 fold change |
| --- | --- |
| RRIRKRPPRLPRPRPRPCNKPRP | 0.0197 |
| RRIRIRPPRLPRPRPRPKLPPRP | 0.0199 |
| RRIRIRPPRLPRPRPRPNRMPRP | -0.0394 |
| RRIRMRPPRLPRPRPRPCRNPRP | -0.326 |
| RRIRWRPPRLPRPRPRPFQIPRP | -0.25 |
| RRIRDRPPRLPRPRPRPNRQPRP | -0.0252 |
| RRIRRRPPRLPRPRPRPTRNPRP | 0.853 |
| RRIRIRPPRLPRPRPRPARRPRP | 0.72 |
| RRIRIRPPRLPRPRPRPTERPRP | -0.0197 |
| RRIRQRPPRLPRPRPRPHWRPRP | -0.374 |
| RRIRNRPPRLPRPRPRPLYRPRP | -0.332 |
| RRIRYRPPRLPRPRPRPTFMPRP | -0.0549 |
| RRIRCRPPRLPRPRPRPHWDPRP | -0.306 |
| RRIRIRPPRLPRPRPRPNNVPRP | -0.7 |
| RRIRNRPPRLPRPRPRPRYWPRP | 0.0625 |
| RRIRSRPPRLPRPRPRPENWPRP | -0.0386 |
| RRIRNRPPRLPRPRPRPHTGPRP | -0.313 |
| RRIRMRPPRLPRPRPRPSWTPRP | -0.0874 |
| RRIRGRPPRLPRPRPRPREVPRP | 1.05 |
| RRIRLRPPRLPRPRPRPGMTPRP | 0.00528 |
| RRIRDRPPRLPRPRPRPQGYPRP | -0.0816 |
| RRIRPRPPRLPRPRPRPEGKPRP | -0.124 |
| RRIRFRPPRLPRPRPRPNQQPRP | -0.0474 |
| RRIRLRPPRLPRPRPRPIVAPRP | -0.0323 |
| RRIRLRPPRLPRPRPRPCWHPRP | -0.0884 |

| Sequence | shrunken log2 fold change |
| --- | --- |
| RRIRRRPPRLPRPRPRPCCVPRP | 0.415 |
| RRIRNRPPRLPRPRPRPSYEPRP | -0.999 |
| RRIRNRPPRLPRPRPRPPDNPRP | -0.146 |
| RRIRLRPPRLPRPRPRPHVFPRP | -0.0592 |
| RRIRVRPPRLPRPRPRPCMNPRP | -0.31 |
| RRIRMRPPRLPRPRPRPSVAPRP | 0.44 |
| RRIRTRPPRLPRPRPRPHCDPRP | -0.0828 |
| RRIRNRPPRLPRPRPRPELWPRP | 0.604 |
| RRIRARPPRLPRPRPRPSISPRP | 0.0682 |
| RRIRCRPPRLPRPRPRPYTWPRP | -1.09 |
| RRIRARPPRLPRPRPRPWVAPRP | 0.285 |
| RRIRRRPPRLPRPRPRPPYKPRP | 0.114 |
| RRIRRRPPRLPRPRPRPIICPRP | 0.0738 |
| RRIRLRPPRLPRPRPRPWWWPRP | -0.00192 |
| RRIRMRPPRLPRPRPRPFCHPRP | -0.0129 |
| RRIRQRPPRLPRPRPRPCWQPRP | -0.0325 |
| RRIRTRPPRLPRPRPRPWGNPRP | -0.602 |
| RRIRKRPPRLPRPRPRPAQVPRP | 0.296 |
| RRIRSRPPRLPRPRPRPKRDPRP | 0.0509 |
| RRIRFRPPRLPRPRPRPVANPRP | -0.1 |
| RRIRHRPPRLPRPRPRPTCSPRP | 0.0782 |
| RRIRERPPRLPRPRPRPQAVPRP | 0.0552 |
| RRIRYRPPRLPRPRPRPNNKPRP | -1.17 |
| RRIRRRPPRLPRPRPRPLSLPRP | -0.203 |
| RRIRHRPPRLPRPRPRPSHVPRP | -0.166 |
